Values quoted from earlier work as cited in article PMC8544432.
Read-outs that look alike come from different tables or passages of the source.

Tests used:
PBX1 (Homo sapiens) [1] = target: PBX1 (Homo sapiens) (UniProt P40424)
PBX1 (Homo sapiens) [2] = target: PBX1 (Homo sapiens) (UniProt P40424); remark: listed apart in the source

Sequence of UniProt P40424 (P40424 whole entry): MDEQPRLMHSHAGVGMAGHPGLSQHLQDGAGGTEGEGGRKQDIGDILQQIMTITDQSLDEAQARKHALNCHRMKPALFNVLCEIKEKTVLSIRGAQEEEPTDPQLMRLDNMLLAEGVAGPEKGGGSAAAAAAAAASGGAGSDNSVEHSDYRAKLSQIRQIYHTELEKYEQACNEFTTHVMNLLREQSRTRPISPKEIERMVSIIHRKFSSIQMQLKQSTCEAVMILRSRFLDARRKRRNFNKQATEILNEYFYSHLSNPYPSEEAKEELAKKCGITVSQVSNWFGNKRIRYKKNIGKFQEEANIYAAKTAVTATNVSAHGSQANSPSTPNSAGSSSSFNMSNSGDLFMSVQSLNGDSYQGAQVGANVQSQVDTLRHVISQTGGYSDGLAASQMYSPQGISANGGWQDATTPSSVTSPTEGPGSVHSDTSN

Row | Kd (PBX1 (Homo sapiens) [1]) [µM] | Kd (PBX1 (Homo sapiens) [2]) [µM] | Substance
1 | 0.08 |  | MEIS1 (from UniProt O00470)
2 |  | 0.018 | PREP1 (from UniProt P55347)
